Consider four molecules from patent US20110129459A1 (Chugai, published 2011).

Several values for one entry are separate records, joined by “and”; a condition that tells them apart may be missing. Equal entries are not always repeated. Where two headings read alike, the source gives them in different places.

Assay [1] addresses T1, cytoplasmic domain-lacking human NR10 on CHO cells (hNR10-expressing CHO cells) (human, UniProt Q8NI17 20-553).
T1 construct: also called NR10-expressing cells
T1 sequence: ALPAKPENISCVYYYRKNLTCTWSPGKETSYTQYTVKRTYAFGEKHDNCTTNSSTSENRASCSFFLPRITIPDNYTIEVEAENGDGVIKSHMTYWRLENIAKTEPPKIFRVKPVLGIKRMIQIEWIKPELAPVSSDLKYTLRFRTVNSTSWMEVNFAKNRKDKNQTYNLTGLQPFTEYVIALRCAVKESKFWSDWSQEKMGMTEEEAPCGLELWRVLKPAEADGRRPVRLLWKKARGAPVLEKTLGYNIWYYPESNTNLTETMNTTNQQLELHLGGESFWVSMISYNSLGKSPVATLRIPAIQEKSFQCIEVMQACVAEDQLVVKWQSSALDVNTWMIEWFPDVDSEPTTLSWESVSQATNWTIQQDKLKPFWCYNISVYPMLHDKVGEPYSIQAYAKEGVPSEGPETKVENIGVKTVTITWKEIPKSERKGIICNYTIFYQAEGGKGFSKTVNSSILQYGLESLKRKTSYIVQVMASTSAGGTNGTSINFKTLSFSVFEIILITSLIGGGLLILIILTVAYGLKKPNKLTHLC
The assay is described as follows: FMAT competition on hNR10-expressing CHO cells: antibody titrated against FMAT Blue-labeled hIL-31; FL1 = cell-bound labeled hIL-31. As for the experimental part: Human IL-31 (R&D Systems) was labeled with FMAT Blue Monofunctional Reactive Dye (Applied Biosystems). 100 μl of hIL-31 prepared at 0.5 mg/ml using 50 mM sodium phosphate buffer (pH 8.0) was mixed with 5.25 μl of 25 nmoles FMAT Blue dissolved in DMSO (Junsei). After vortexing, the mixture was allowed to stand at room temperature for 15 minutes. The FMAT Blue-conjugating reaction with hIL-31 was terminated by adding 5 μl of 1 M Tris-HCl (pH 7.4) and 1.1 μl of 10% Tween20, and then FMAT Blue-labeled hIL-31 and unreacted FMAT Blue were separated by gel filtration using Superdex 75 (GE Healthcare, 17-0771-01) column with 0.1% Tween20/PBS developing solution.
(§1) Antibodies were assessed for the activity of inhibiting the IL-31/NR10 binding by using hNR10-expressing CHO cells as described below. The chimeric NS22 antibody and NS22_H0L0 (H chain, H0-SKSC/SEQ ID NO: 54; L chain, L0/SEQ ID NO: 56) were diluted at an appropriate concentration using Assay buffer (10 mM HEPES, 140 mM NaCl, 2.5 mM CaCl₂, 3 mM MgCl₂, 2% FBS, 0.01% NaN₃, pH7.4), and further eight serial dilutions were prepared at a common dilution ration of 2. The dilutions were added at 40 μl/well to plates (96-Well FMAT Plates, Applied Biosystems). Then, FMAT Blue-labeled hIL-31 was diluted 400 times with Assay buffer, and added at 20 μl/well. Finally, a cell suspension adjusted to 2.5×10⁵ cells/ml using Assay buffer was added at 40 μl/well (final 1×10⁴ cells/well). Two hours after addition of cells, the fluorescence (FL1) was measured using the 8200 Cellular Detection System (Applied Biosystems).

Assay [2] has as its target T2, rhNR10 (recombinant human NR10) (human, UniProt Q8NI17 20-519, limits assumed).
T2 construct: also called IL-31 receptor; IL31RA
T2 sequence: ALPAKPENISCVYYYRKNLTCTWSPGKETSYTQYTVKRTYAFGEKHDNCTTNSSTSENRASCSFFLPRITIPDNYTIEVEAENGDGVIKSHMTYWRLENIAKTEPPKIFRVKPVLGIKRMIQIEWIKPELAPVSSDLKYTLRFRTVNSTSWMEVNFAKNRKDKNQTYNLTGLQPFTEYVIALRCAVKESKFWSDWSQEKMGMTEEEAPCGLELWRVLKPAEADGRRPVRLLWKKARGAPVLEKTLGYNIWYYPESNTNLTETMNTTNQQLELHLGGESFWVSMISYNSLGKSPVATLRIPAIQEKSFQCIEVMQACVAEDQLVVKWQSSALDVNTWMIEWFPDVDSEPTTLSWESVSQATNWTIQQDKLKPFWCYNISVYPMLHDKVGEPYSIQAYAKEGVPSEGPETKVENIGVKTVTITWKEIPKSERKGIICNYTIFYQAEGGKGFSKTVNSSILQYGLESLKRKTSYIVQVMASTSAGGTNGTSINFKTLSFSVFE
The assay is described as follows: SPR, Biacore T100; antibody captured on Protein A, rhNR10 as analyte. As for the experimental part:
(§2) Kinetic analysis of the antigen-antibody reaction was carried out using Biacore T100 (GE Healthcare Biosciences). The antigen-antibody interaction was measured by immobilizing rec-Protein A (hereinafter Protein A) (ZYMED) onto a sensor chip, capturing an antibody on the immobilized Protein A, and then reacting the antigen as an analyte. Various concentrations of rhNR10 were used as the antigen. The kinetic parameters, association rate constant kₐ (1/Ms) and dissociation rate constant kd (1/s), were calculated from the sensorgrams obtained by the measurement. Then, KD (M) was determined based on the rate constants. Each parameter was determined using Biacore T100 Evaluation Software version 1.1 (GE Healthcare Biosciences).
(§3) The running buffer used was HBS-EP+. Each antibody was prepared at 0.25 μg/ml, or prepared so that about 100 RU would bind to Protein A. rhNR10 used as an analyte was prepared at 0, 38.5, 77.0, and 154 nM, or at 0, 19.25, and 77.01 nM using HBS-EP+. In the measurement, first, the antibody solution was captured on Protein A, and an analyte solution was reacted at a flow rate of 20 μL/min for three minutes. Then, the solution was switched to HBS-EP+, and the dissociation phase was measured for five minutes. After measurement of the dissociation phase, the sensor chip was regenerated by washing with 10 mM glycine-HCl (pH 1.5). The obtained sensorgrams were kinetically analyzed using the Biacore-specific data analysis software, Biacore T100 Evaluation Software Version 1.1.

The target in assay [3] is T2, rhNR10 (recombinant human NR10). The assay is described as above. As for the experimental part:
as §2, §3
The source holds these as a separate data set.

Assay [4] shares this target. Described as above. As for the experimental part: as §2, §3
This is another data set of the same source.

Assay [5] addresses T1, cytoplasmic domain-lacking human NR10 …. The assay is described as follows: FMAT competition on hNR10-expressing CHO cells: antibody titrated against FMAT Blue-labeled hIL-31; FL1 = cell-bound labeled hIL-31; mean±S.D. (n=3). On the procedure:
as §1
Each variant was tested for the activity of inhibiting the hIL-31/hNR10 binding by using FMAT. The test was carried out according to the method as described in Example 4.

Assay [6] has the same target. The assay is described as follows: FMAT competition on hNR10-expressing CHO cells: unlabeled chimeric antibody titrated against 8.8x10^-2 µg/ml FMAT Blue-NS22; FL1 = cell-bound labeled NS22. On the procedure:
The antibody NS22 purified from a hybridoma culture supernatant was labeled with FMAT Blue (Applied Biosystems, 4328853). 170 μl of NS22 prepared at 1 mg/ml in PBS was mixed with 17 μl of 1 M NaHCO₃ solution and 3.4 μl of FMAT Blue (17 nmoles) dissolved in DMSO. After vortexing, the mixture was allowed to stand at room temperature for 30 minutes. The FMAT Blue conjugating reaction with NS22 was terminated by adding 8 μl of 1 M Tris-HCl (pH 7.4) and 1.9 μl of 1% Tween 20, and then FMAT Blue-labeled NS22 (FMAT Blue-NS22) and unreacted FMAT Blue were separated by gel filtration using Superdex 75 (GE Healthcare, 17-0771-01) column with 0.01% Tween20/PBS developing solution.
Each antibody was examined for inhibition of the binding of the prepared FMAT Blue-NS22 to hNR10-expressing CHO cells (Referential Example 3) using the 8200 Cellular Detection System (Applied Biosystems, 4342920). The chimeric anti-NR10 antibodies (the constant region of each is γ1, κ) were added at various concentrations to each well containing 7500 cells and 8.8×10⁻² μg/ml FMAT Blue-NS22. The cells were allowed to stand in the dark for four hours, and then the fluorescent signal from FMAT Blue bound to the cells was measured. […] The fluorescence value FL1, which represents the binding of FMAT Blue-NS22 to NR10-expressing cells, was reduced with the increase in the concentration of antibody NS22 or NS23.

B1: humanized NS22 H0L0 with constant region SKSC (H0L0-SKSC) (antibody)
heavy: QVQLVQSGAEVKKPGASVKVSCKASGYTFTGYIMNWVRQAPGQGLEWMGLINPYNGGTSYNQKFKGRVTITADESTSTAYMELSSLRSEDTAVYYCARDGYDDGPYTMDYWGQGTLVTVSSASTKGPSVFPLAPSSKSTSESTAALGCLVKDYFPEPVTVSWNSGALTSGVHTFPAVLQSSGLYSLSSVVTVPSSNFGTQTYTCNVDHKPSNTKVDKTVERKSCVECPPCPAPPVAGPSVFLFPPKPKDTLMISRTPEVTCVVVDVSHEDPEVQFNWYVDGVEVHNAKTKPREEQFNSTFRVVSVLTVVHQDWLNGKEYKCKVSNKGLPAPIEKTISKTKGQPREPQVYTLPPSREEMTKNQVSLTCLVKGFYPSDIAVEWESNGQPENNYKTTPPMLDSDGSFFLYSKLTVDKSRWQQGNVFSCSVMHEALHNHYTQKSLSLSPGK
light: DIQMTQSPSSLSASVGDRVTITCRTSENIYSFLAWYQQKPGKAPKLLIYNAKTLAKGVPSRFSGSGSGTDFTLTISSLQPEDFATYYCQHHYESPLTFGGGTKVEIKRTVAAPSVFIFPPSDEQLKSGTASVVCLLNNFYPREAKVQWKVDNALQSGNSQESVTEQDSKDSTYSLSSTLTLSKADYEKHKVYACEVTHQGLSSPVTKSFNRGEC
In the case of B1, the “IC50 (read off the curve)” value in assay [1] and in assay [5] was ~0.1 µg/mL in each case. The Kd in assay [2] is 3.2 nM; in assay [3], 3.3 nM; in assay [4] it was 3.2 nM and 5.1 nM. For the same molecule, the koff in assay [2] was 0.00091 s⁻¹; in assay [3], 0.0012 s⁻¹; in assay [4], 0.00062 s⁻¹ and 0.00074 s⁻¹. For the same molecule, the kon in assay [2] was 290000 M⁻¹ s⁻¹; in assay [3] it was 370000 M⁻¹ s⁻¹; in assay [4], 190000 M⁻¹ s⁻¹ and 150000 M⁻¹ s⁻¹.

B2: humanized NS22 H1L0 (H1-SKSC / L0) (antibody, V domains shown)
VH: QVQLVQSGAEVKKPGASVKVSCKASGYTFTGYIMNWVRQAPGQGLEWMGLINPYNGGTSYNQKFKGRVTITADKSTSTAYMELSSLRSEDTAVYYCARDGYDDGPYTMDYWGQGTLVTVSS
VL: DIQMTQSPSSLSASVGDRVTITCRTSENIYSFLAWYQQKPGKAPKLLIYNAKTLAKGVPSRFSGSGSGTDFTLTISSLQPEDFATYYCQHHYESPLTFGGGTKVEIKR
For the molecule B2, the binding result in assay [1] is given as “binds”.

B3: chimeric NS22 (human gamma1, kappa) (antibody, V domains shown)
VH: EVQLQQSGPELVKPGASMKISCKASGYSFTGYIMNWVKQSHGKNLEWIGLINPYNGGTSYNQKFKGKATLTVDKSSSTAYMELLSLTSEDSAVYYCARDGYDDGPYTMDYWGQGTSVTVSS
VL: DIQMTQSPASLSASVGETVTITCRTSENIYSFLAWYQQKQGKSPHLLVYNAKTLAKGVPSRFSGSGSGTQFSLKINSLQPEDFGSYFCQHHYESPLTFGGGTKLEIK
notes: also called chimeric NS22 antibody; the chimeric antibody
Regarding B3, the “IC50 (read off the curve)” value was ~0.5 µg/mL in assay [6] and ~0.1 µg/mL in assay [1].

B4: chimeric NS23 (human gamma1, kappa) (antibody, V domains shown)
VH: EVQLQQSGPELVKPGTSMKISCKASGYSFTGYIMNWVKQSHGKNLEWIGLINPYNGGAEYNQKFKDKATFTVDKSSSTAYMELLSLTSEDSAVYYCARDGYDDGPYTMDYWGQGTSVTVSS
VL: DIQMTQSPASLSASVGETVTFTCRANENIYSYLAWYQQKQGKSPQLLVYNAKTLAEGVPSRFSGSGSGTQFSLKINSLQPEDFGSYYCQHHYGTPPTFGGGTKLEIK
Take B4: the “IC50 (read off the curve)” value in assay [6] was ~0.5 µg/mL.
